In the DeepSol protein solubility set:

Assay: soluble on expression in E. coli; label from the status in PepcDB or PDB records

Row | Sequence | soluble on expression in E. coli
1 | MKSGRFIGVMSGTSLDGVDVVLAAIDETMVAQQASLTWPIPVHLKKGILDICQGQPLTLSQLGQLDTQLGRLFAQAVNALLAQQRLQPRDIVAIGCHGQTVWHEPTGEAPHTLQIGDNNHIVAHTGITVVGDFRRRDIALGGQGAPLVPAFHHALLGHPTEKRMVLNIGGIANLSLLFPGQAVRGYDTGPGNMLMDAWIWRQCAQPYDKDAAWAKEGQVILPLLQKMLRDPYFAASAPKSTGREYFNYGWLERHLAAFPGADARDVQATLAELTAVSIAQQVLLNGGCERLMVCGGGGRNPLVMARLAALLPGIEVSTTDKAGISGDDMEALAFAWLAWRTLAGLPGNLPSVTGATEASVLGAIYPANPITQS | not soluble
2 | MNLFYNPKGVGDVAFIQIEPSVGPFEYEQKHGVVEIKKENEVVGYNIFNVSNNVTINDNGHIKLTTELIKDLQQLITEAGFDYQLDTDVSPKFVVGYVETKEKHPNADKLSVLNVNVGTEKLQIVCGAPNVESGQKVVVAKVGAVMPSGMVIKDAQLRGVDSSGMICSMKELNLPNAPKEKGIMVLNDDYDIGQAFFELEHHHHHH | soluble
3 | MWYTGTGDKGKTKVPSVGEVWKDSEIVKALGDLDELNSVLGVVSSLYPELSEVIQKLQNDIFSISSEIAGFDMNFSDEKVKGIEELITNYSKELEPLRNFVLPGGHIASSFLHLARAVCRRAERSVVTLLKESKAKEVHAKYLNRLSSLLFVLALVVNKRTNNPNVIWRGKD | soluble
4 | MSLSASFTGAGFFKGGKTLDFSKLSYLSNSFMSLPSTVRNKQASQTAKNKSMIEFIEKIQSKNIVVRQEERGIVISLAADAFFDSASADVKLEENRDSIQKIASFIGFLSPRGYNFKIEGHTDNIDTDVNGPWKSNWELSAARSVNMLEHILNYLDQSDVKRIENNFEVSGFGGSRPIATDDTPEGRAYNRRIDILITTDASLSFPKEGHHHHHH | soluble
5 | MAHHHHHHMRRSVIRTRKEFLERKQHERVHEAIHARKEQFRSAVETATPLPGHLKKDALALKKFTELDDAQTRNLTTTVDDEYANAGQEDPHVLVTTSRNASQKLLEFAKEVRLIVPNAVRMNRGNLSVHQLMDAARKENYTDVLVLQESQGVPDSLIVSHLPLGPTVTFTIHNLVARHDIDGVGTMSEQYPHLVFENFSTKLGIRIKDVLRYLFPVPKADASRVLTFDNENDFISFRHHTFKKEKGKKQVELTEVGPRFELTPYRIVLGTLEMDDAETEWVLQPYMNTAKKRRLL | soluble
6 | MGSDKIHHHHHHAADHVKGDGKLTSKKISVADYNEIKVDGVIDFNYEQSDDPSTVEVTVDQNLHPYVNIEVKDRVLTIAFKGAKVDHFTKFIVKTNSKWLAAAKVSGNANFMVNSPLTGDETVIKANANSLVQLKETVTVGKLDLNVSGSANMVVNHLEADKIECDIDGSGSITIKKGNAKEGDYSIVSSGDIHAFGLAVPQLSCKVTGNGLAEVHATDNLKANVVGKGNIRYKGPTAVQQRIIGKGTVEEVKE | not soluble
7 | MSLATILIADDDPVTRTTLSIMLEDEDHEVYEAADSAETLDLLETTEPHVVFMDMVLPDCEAGEGITRVRRAAPAVTIIAMTGQPDTARFSAMARDAGCKECLIKPFEKNRVLALTRKVLAARGHKEGHHHHHH | not soluble
8 | PFMFRPRKQVFQTQGAAVSSMAQTLLPNDLASKAMGSAFTALLDANEDAQKAMKIIKTLSSLSDAWENVKETLNNPEFWKQLLSRCVQLIAGMTIAVMHPDPLTLLCLGTLTAAEITSQTSLCEEIAAKFKTIFITPPPRFPTISLFQQQSPLKQVNDIFSLAKNLDWAVKTVEKVVDWFGTWIVQEEKEQTLDQLLQRFPEHAKRISDLRNGMAAYVECKESFDFFEKLYNQAVKEKRTGIAAVCEKFRQKHDHATARCEPVVIVLRGDAGQGKSLSSQVIAQAVSKTIFGRQSVYSLPPDSDFFDGYENQFAAIMDDLGQNPDGSDFTTFCQMVSTTNFLPNMASLERKGTPFTSQLVVATTNLPEFRPVTIAHYPAVERRITFDYSVSAGPVCSKTEAGYKVLDVERAFRPTGEAPLPCFQNNCLFLEKAGLQFRDNRTKEIISLVDVIERAVARIERKKKVLTTVQTLVAQ | not soluble
9 | MVEISKRIISTFGKTNAHFKLITENDRVLVGLSGGKDSLLLATLLARLARHAPFKFEFKALTVDYGIGEDFSYLQNYCAENGIPHEVFKTNIMEVMQEKRRENSSYCSFCSRLRRGALYSKALEGGYNKLALGHHLDDAAESFFMNFSYNGAIRSMPPIYRAYNGLWVIRPLIWLRERQMVDFVLKNNLQTPLCNC | not soluble
10 | MQVIIISGLSGSGKSIALKVLEDSGYYCVDNLPASLLVVLINHLQTQQHAYVAVAIDMRSGENITVLPWQLKMIDKSIQIKFIFLEARTETLMQRFSETRRRHPLSDKNITLEEAIRREREALATLTGLGHHIDTSSLRPNVLRAFIKDFIADSRSPSQLTLLFQSFGYKHGIPLDADLVFDIRCLPNPFYDPQLKELTGHDPEVIRFMESQPDASKMLRDISSFLGTWLPAYIRDNRAYLTVAIGCTGGQHRSVYFAEKLALHFHDSAHVLVRHRGLAEYKPHYARR | not soluble
11 | SNAMWKRMTAKAEGLYIADTKSFVTKQMDKLDFDYGGIPGDLHFGLTKKAGAREPMFSRGTEIFNRRQISIVSIEECNEIALKMGVPRILPEWLGANVAVSGMPDLTSLKEGSRIIFPSGAALLCEGENDPCIQPGEVIQSYYPDQPKLASAFVRHALGIRGIVCIVERPGAVYTGDEIEVHSYQRKVKRKAERV | soluble
12 | MSMLPTFGFTQEQVACVCEVLQQGGNIERLGRFLWSLPACEHLHKNESVLKAKAVVAFHRGNFRELYKILESHQFSPHNHAKLQQLWLKAHYIEAEKLRGRPLGAVGKYRVRRKFPLPRSIWDGEETSYCFKEKSRSVLREWYAHNPYPSPREKRELTEATGLTTTQVSNWFKNRRQRDRAAEAKERENNENSNSNSHNPLNGSGKSVLGSSEDEKTPSGTPDHSSSSPALLLSPPPPGLPSLHSLGHPPGPSAVPVPVPGGGGADPLQHHHGLQDSILNPMSANLVDLGS | soluble
13 | MIELKHLRTLQALRNTGSLAAAATQLHQTQSALSHQFSDLEQRLGFRLFVRKSQPLRFTTQGEILLQLAEQVLPQIKQALQTCNEPHQTALRIAIECHSCIQWLTPALDNFHKHWPQVTMDFKSGVTFDPQPALQQGELDLVLTSDILPRSGLHYSPMFDFEVRLVLAPDHPLANKDRIEPEDLAPEVLMIYPVQRQRLDVWRHFLQPAGVSPSSKNVDNTLLLIQMVSARMGIAALPHWVVESFERQGLVVTKTLGEGLWSRLYAAVRDGEQRQPVTEAFIRSARQHACDHLPFVKDAVRSNAGVPTAKPLSPQLQ | not soluble
14 | MSESSVTTEIVVRLPKQMVTELDGIGKQENKNRHELICQATQLLLRQHKTKKRYQHESMRRGYIEMGKINLGIASEAFLAEYEAAHTVERLVSGG | not soluble
15 | MKFVSIISNSRMLFLFLLITAKSDRESCLYIFDENIRGVNITPTFVSTRAKGLFDLFIKKLRSRVALSFFLLKRKIKLEETIVYGADHLSHSLLFLKKCSFFLIEDGTENYHQKSYKRSWKNKLFSIPKFGMYKNVKRIYLTKRENVPDCIKSKVEYINIKDLWFKKTEEEKLEILYLLGIDMKKIQLLIGEPFILFTQPLSEDYILTENEKIELYKSIIDKYDASKLVIKPHPREKTDYSRIFPNVKVFDETYPSEVLDILEVKFSRVITLFSTAAFSYPKEKVDFYGTKIHPKLLAKFGNIEYE | not soluble
16 | GPGSMRVNDSITVQQLADEYCITSVVECDATGSVQPRAVALDSPLDVLHGGKYYIARRDVKHFAREPRVTFRGKVTVREFNATHGVIGREGETNANRGQAVAADPVGVAPSRKRPEREEDLFDSGTRTEIYAKEYEFVPFVGDLYNDGRNGMIHLKDVKKLCESVDLDEVEFRARHVQAEKILTHAKQLLLSYADGNGGRTSPEY | not soluble
17 | MMCGGRGTRLDAAAEKPLFEVGGRAMVDHVRAALEAAGRIDTTHAAVSPHAPDTAAHLAATPLSLIETPGDGYVADLTAALDAVGTPVLTVAADLPLLAPAVVDTVVAAADGATTSACVPRALKHELGVSTDADADAWVPTGVNVVGGGDTEATHRSFDARLAVNVNHRSDAAVAARLLAATDRRNHPRLEHHHHHH | not soluble
